From the supplement of paper PMC6757056
± gives the standard deviation of the averaged measurements.

B1: library; a variant is named by its letters at N, in order (parent)
chain: GCUGUCACCGAGAAACUGUGAAGUAUAUCUUAAACCUGGGCACUUAAAAGAUAUAUGGAGUUAGUAGUGCAACCUGCUCGGUCUGAUGAGUCCNNNNNNGGACGAAACAGC

Legend:
cyclic di-GMP [1] = variants of: B1; assay: FACS-Seq fitted mean relative fluorescence mCherry/BFP without ligand (log10 relative fluorescence); HEK293T; ligand: cyclic di-GMP (c-di-GMP-II aptamer); higher = higher reporter protein expression; details: ligand present: no
Procedure, shortened: (§1)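 Fluorescence figures are normalized fitted normal means of sequenced bin counts. Enriched, lentivirally transduced HEK293T libraries with a ribozyme-switch mCherry reporter and EF1α-BFP were held 48 h with or without ligand, then sorted into 6 mCherry/BFP bins. PCR-amplified, barcoded genomic DNA from each bin was sequenced on MiSeq. Means of log10(mCherry/BFP) were scaled to five spiked-in control ribozymes.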

cyclic di-GMP [2] = variants of: B1; assay: normalized RNA/DNA level without ligand (relative to sTRSVctl = 100) (log10 (% of sTRSVctl)); HEK293T; ligand: cyclic di-GMP (c-di-GMP-II aptamer); higher = less ribozyme self-cleavage, higher mRNA level; details: reporter: mCherry (pCS4076), ligand present: no
Procedure, shortened: (§2)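 Library plasmids carrying ribozyme switches linked to mCherry, or to eGFP in some ligand experiments, were transfected into HEK293T at 4 µg per 6-well well, with any ligand added 1 h earlier. Seventy-two hours on, total RNA was extracted with EDTA and reverse-transcribed, amplified, barcoded and sequenced. RNA level was RNA over DNA reads normalized to a spiked-in non-cleaving sequence or to the top sequences, then scaled and log-transformed. The top set was 25 sequences, the transform was ×100 and log10, and sequences needed ≥100 DNA reads.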

cyclic di-GMP [3] = variants of: B1; assay: FACS-Seq fitted mean relative fluorescence mCherry/BFP with ligand (log10 relative fluorescence); HEK293T; ligand: cyclic di-GMP (c-di-GMP-II aptamer); ligand concentration (+) FACS-Seq: 1 mM; higher = higher reporter protein expression; details: ligand present: yes
Procedure, shortened: as §1

cyclic di-GMP [4] = variants of: B1; assay: normalized RNA/DNA level with ligand (relative to sTRSVctl = 100) (log10 (% of sTRSVctl)); HEK293T; ligand: cyclic di-GMP (c-di-GMP-II aptamer); ligand concentration (+) RNA-Seq: 1 mM; higher = less ribozyme self-cleavage, higher mRNA level; details: reporter: mCherry (pCS4076), ligand present: yes
Procedure, shortened: as §2

| Variant | FACS-Seq fitted mean (log10) (cyclic di-GMP [1]) | normalized RNA/DNA level without ligand (log10) (cyclic di-GMP [2]) | FACS-Seq fitted mean (log10) (cyclic di-GMP [3]) | normalized RNA/DNA level with ligand (log10) (cyclic di-GMP [4]) |
| --- | --- | --- | --- | --- |
| CGGACA | -0.421 ± 0.083 | 1.4 ± 0.13 | -0.265 ± 0.047 | 1.58 ± 0.085 |
| CGGACU | -0.791 ± 0.13 | 1.48 ± 0.14 | -0.611 ± 0.11 | 1.64 ± 0.11 |
| CGGACG | -1.09 ± 0.056 | 1.77 ± 0.072 | -1.17 ± 0.31 | 1.87 ± 0.11 |
| AGACAA | -0.193 ± 0.061 | 1.47 ± 0.057 | 0.171 ± 0.019 | 1.65 ± 0.1 |
| AGAAAG | -0.223 ± 0.077 | 1.5 ± 0.058 | 0.0417 ± 0.031 | 1.69 ± 0.1 |
| AGAAAA | -0.765 ± 0.013 | 1.42 ± 0.084 | -0.587 ± 0.043 | 1.61 ± 0.089 |
| AGAAAC | 0.0659 ± 0.072 | 1.617 ± 0.0019 | 0.343 ± 0.052 | 1.8 ± 0.12 |
| AGAAUG | -0.367 ± 0.045 | 1.48 ± 0.12 | -0.126 ± 0.14 | 1.68 ± 0.043 |
| AGAAUU | 0.202 ± 0.13 | 1.65 ± 0.072 | 0.346 ± 0.074 | 1.8 ± 0.12 |
| AGAAUC | -0.291 ± 0.023 | 1.63 ± 0.06 | -0.0843 ± 0.044 | 1.78 ± 0.073 |
| AGAUUA | -0.549 ± 0.084 | 1.49 ± 0.078 | -0.245 ± 0.019 | 1.69 ± 0.15 |
| AGAUAA | -0.905 ± 0.032 | 1.44 ± 0.11 | -0.444 ± 0.023 | 1.65 ± 0.11 |
| AGCGAA | -0.109 ± 0.022 | 1.41 ± 0.069 | 0.163 ± 0.081 | 1.61 ± 0.15 |
| AGACGC | -0.232 ± 0.099 | 1.65 ± 0.066 | -0.0488 ± 0.032 | 1.81 ± 0.098 |
| AGACGU | -1.017 ± 0.0037 | 1.573 ± 0.012 | -0.759 ± 0.072 | 1.75 ± 0.13 |
| AGACGA | -0.409 ± 0.019 | 1.54 ± 0.063 | -0.212 ± 0.013 | 1.73 ± 0.12 |
| UGAAGU | -0.24 ± 0.081 | 1.59 ± 0.024 | 0.0885 ± 0.12 | 1.79 ± 0.12 |
| AGGACA | -0.264 ± 0.0046 | 1.48 ± 0.11 | -0.014 ± 0.086 | 1.63 ± 0.12 |
| AGGAAG | -0.88 ± 0.017 | 1.38 ± 0.13 | -0.6586 ± 0.0033 | 1.52 ± 0.13 |
| AGGAAA | -0.514 ± 0.031 | 1.33 ± 0.15 | -0.185 ± 0.026 | 1.52 ± 0.1 |
| AGGAAU | -0.199 ± 0.032 | 1.6 ± 0.042 | 0.123 ± 0.1 | 1.76 ± 0.1 |
| CGAAGA | -0.38091 ± 0.00015 | 1.37 ± 0.096 | -0.0195 ± 0.04 | 1.65 ± 0.075 |
| AGCUUG | -0.0154 ± 0.14 | 1.59 ± 0.041 | 0.223 ± 0.0032 | 1.81 ± 0.14 |
| AGAGAA | -0.335 ± 0.073 | 1.33 ± 0.12 | -0.0362 ± 0.068 | 1.54 ± 0.1 |

| Variant | FACS-Seq fitted mean (log10) (cyclic di-GMP [1]) | normalized RNA/DNA level without ligand (log10) (cyclic di-GMP [2]) | FACS-Seq fitted mean (log10) (cyclic di-GMP [3]) | normalized RNA/DNA level with ligand (log10) (cyclic di-GMP [4]) |
| --- | --- | --- | --- | --- |
| AGAACU | -0.833 ± 0.11 | 1.68 ± 0.031 | -0.561 ± 0.02 | 1.82 ± 0.11 |
| AGAACA | 0.105 ± 0.17 | 1.53 ± 0.036 | 0.348 ± 0.0047 | 1.72 ± 0.13 |
| UGGACU | -0.517 ± 0.12 | 1.69 ± 0.076 | -0.118 ± 0.075 | 1.86 ± 0.045 |
| UGAUGU | -0.179 ± 0.057 | 1.63 ± 0.052 | 0.187 ± 0.058 | 1.84 ± 0.089 |
| UGAUGA | -0.253 ± 0.0055 | 1.58 ± 0.033 | 0.00931 ± 0.037 | 1.8 ± 0.099 |
| UGAACG | -0.401 ± 0.086 | 1.74 ± 0.033 | -0.0168 ± 0.22 | 1.84 ± 0.11 |
| AGAGGA | -0.441 ± 0.0074 | 1.4 ± 0.11 | -0.212 ± 0.025 | 1.56 ± 0.11 |
| CGAUGA | -0.364 ± 0.049 | 1.47 ± 0.059 | -0.172 ± 0.032 | 1.62 ± 0.12 |
| CGAUGC | -0.127 ± 0.16 | 1.722 ± 0.014 | 0.202 ± 0.062 | 1.88 ± 0.049 |
| CGCAUA | -0.777 ± 0.12 | 1.29 ± 0.082 | -0.5758 ± 0.0012 | 1.52 ± 0.17 |
| CGCAUG | -0.455 ± 0.031 | 1.627 ± 0.0082 | -0.162 ± 0.14 | 1.8 ± 0.12 |
| CGCCAU | -0.339 ± 0.042 | 1.5 ± 0.12 | -0.0661 ± 0.036 | 1.69 ± 0.078 |
| CGCCAA | -0.26 ± 0.2 | 1.37 ± 0.045 | 0.0764 ± 0.12 | 1.56 ± 0.15 |
| CGCCAC | -0.0985 ± 0.057 | 1.69 ± 0.027 | 0.173 ± 0.026 | 1.84 ± 0.12 |
| AGGAGA | -0.574 ± 0.012 | 1.37 ± 0.12 | -0.304 ± 0.011 | 1.48 ± 0.025 |
| CGGGGC | -0.104 ± 0.11 | 1.73 ± 0.055 | 0.215 ± 0.046 | 1.84 ± 0.14 |
| CGGGGA | -0.489 ± 0.015 | 1.54 ± 0.11 | -0.28 ± 0.044 | 1.64 ± 0.093 |
| AGGGAG | -0.66 ± 0.02 | 1.6 ± 0.05 | -0.378 ± 0.013 | 1.73 ± 0.084 |
| UGACGC | -0.22 ± 0.01 | 1.73 ± 0.027 | 0.123 ± 0.016 | 1.84 ± 0.17 |
| UGCUUU | 0.0721 ± 0.19 | 1.73 ± 0.025 | 0.309 ± 0.091 | 1.87 ± 0.11 |
| CGCAAU | -0.449 ± 0.027 | 1.45 ± 0.087 | -0.206 ± 0.045 | 1.61 ± 0.078 |
| CGCAAA | -0.531 ± 0.011 | 1.26 ± 0.097 | -0.262 ± 0.015 | 1.47 ± 0.085 |
| CGGCUA | -0.523 ± 0.084 | 1.33 ± 0.088 | -0.355 ± 0.014 | 1.46 ± 0.18 |
| CGGCUU | -0.717 ± 0.062 | 1.5 ± 0.099 | -0.63 ± 0.15 | 1.67 ± 0.062 |

| Variant | FACS-Seq fitted mean (log10) (cyclic di-GMP [1]) | normalized RNA/DNA level without ligand (log10) (cyclic di-GMP [2]) | FACS-Seq fitted mean (log10) (cyclic di-GMP [3]) | normalized RNA/DNA level with ligand (log10) (cyclic di-GMP [4]) |
| --- | --- | --- | --- | --- |
| UGAGUC | -0.147 ± 0.039 | 1.7273 ± 0.0012 | 0.117 ± 0.074 | 1.87 ± 0.14 |
| UGAGUG | -0.0499 ± 0.13 | 1.7246 ± 0.00091 | 0.259 ± 0.047 | 1.83 ± 0.091 |
| AGAUGA | -0.545 ± 0.04 | 1.4 ± 0.13 | -0.336 ± 0.063 | 1.61 ± 0.14 |
| AGAUGC | -0.7631 ± 0.0076 | 1.66 ± 0.056 | -0.47 ± 0.029 | 1.77 ± 0.12 |
| UGGAAU | -0.121 ± 0.12 | 1.57 ± 0.041 | 0.272 ± 0.075 | 1.77 ± 0.13 |
| UGGAAC | -0.221 ± 0.031 | 1.64 ± 0.033 | 0.11 ± 0.0057 | 1.83 ± 0.075 |
| AGCAUG | -0.472 ± 0.038 | 1.53 ± 0.031 | -0.236 ± 0.053 | 1.71 ± 0.055 |
| CGGGUG | -0.608 ± 0.14 | 1.62 ± 0.026 | -0.7531 ± 0.0033 | 1.82 ± 0.12 |
| CGGGUC | -0.589 ± 0.12 | 1.81 ± 0.032 | -0.527 ± 0.034 | 1.9 ± 0.057 |
| CGGGUA | -0.076 ± 0.13 | 1.67 ± 0.023 | 0.207 ± 0.099 | 1.75 ± 0.081 |
| GGAGGC | 0.132 ± 0.076 | 1.6 ± 0.065 | 0.234 ± 0.067 | 1.79 ± 0.072 |
| CGGGAA | -0.636 ± 0.012 | 1.33 ± 0.033 | -0.472 ± 0.015 | 1.36 ± 0.081 |
| CGGGAG | -0.586 ± 0.063 | 1.68 ± 0.017 | -0.113 ± 0.0022 | 1.79 ± 0.064 |
| CGCUUU | -0.255 ± 0.035 | 1.46 ± 0.071 | 0.0291 ± 0.018 | 1.69 ± 0.073 |
| CGCUUA | -0.545 ± 0.077 | 1.27 ± 0.17 | -0.264 ± 0.015 | 1.46 ± 0.036 |
| UGCAUG | -0.116 ± 0.0019 | 1.734 ± 0.0063 | 0.0785 ± 0.1 | 1.85 ± 0.13 |
| UGCAUC | -1.13 ± 0.034 | 1.78 ± 0.026 | -0.952 ± 0.082 | 1.87 ± 0.099 |
| AGCCAA | -0.274 ± 0.071 | 1.53 ± 0.072 | -0.0148 ± 0.057 | 1.73 ± 0.053 |
| AGCUCG | -0.0835 ± 0.12 | 1.74 ± 0.095 | 0.217 ± 0.076 | 1.88 ± 0.039 |
| AGCAGA | -0.373 ± 0.045 | 1.564 ± 0.0029 | -0.1 ± 0.017 | 1.69 ± 0.19 |
| AGCAGC | -0.317 ± 0.18 | 1.72 ± 0.048 | -0.109 ± 0.057 | 1.86 ± 0.069 |
| CGGCGC | -0.498 ± 0.2 | 1.8 ± 0.044 | -0.494 ± 0.095 | 1.94 ± 0.069 |
| ACUUUU | -0.0638 ± 0.052 | 1.6 ± 0.053 | 0.272 ± 0.091 | 1.8 ± 0.095 |
